Target: the molecule itself
Assay: negative stain electron microscopy

B1: zebrafish Impdh1a (544) (enzyme)
chain: not shown
- binding result: binds

— publication PMC8688572 (The Journal of Biological Chemistry, 2021)
